# Reference: the RNAGym collection of RNA variant scans (doi:10.1073/pnas.2313332121)
# B1: TPR t1 (parent)
# chain: GACCAAUCUGCCCUCAGAGCUCGAGAACAUCUUCGGAUGCAGAGGAGGCAGGCUUCGGUGGCGCGAUAGCGCCAACGUCCUCAACCUCCAAUGCAUCCCACCACAUGAUGAUGCCUGAAGAGCCUUGGUUUUUUG
# Variants of: B1
# Test: polymerase ribozyme fitness, log enrichment relative to wild type (log ratio); higher = more active; in vitro selection for triplet polymerase activity
# How it was run: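 Genotype fitness is the logarithm of its enrichment divided by wild-type enrichment, using inverse-variance-weighted averages of replicates. That logarithm is base 2. Enrichment was measured by Illumina sequencing of input and output libraries from one triplicate in vitro selection round, with frozen incubation at −7 °C, on PCR-built, transcribed mutant libraries of each subunit of a heterodimeric triplet polymerase ribozyme, retaining genotypes with ≥10 input reads and ≥1 read per output.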
row,Variant,polymerase ribozyme fitness (log ratio)
1,GACCAAUCUGCCCUCAGAGCUCGAGAACAUCUUCGGAUGCAGAGGAGGAAGGCUUCGGUGGCGCGAUAGCCCCAACGUCCUCAACCUCCAAUGCAUCUCACCACAUGAUGAUGCCUGAAGAGCCUUGGUUUUUUG,-2.91
2,GACCAAUCUGCCCUCAGAGCUCGAGAACAUCUUCGGAUGCAGAGGAGGAAGGCUUCGGUGGCUCGAUAGCGCCAACGUCCUCAACCUCCAAUGCAUGCCACCACAUGAUGAUGCCUGAAGAGCCUUGGUUUAUUG,-6.24
3,GACCAAUCUGCCCUCAGAGCUCGAGAACAUCUUCGGAUGCAGAGGAGGAAGGCUUCGGUGGCGCGAUAGCACCAACGUCCUAAACCUCCAAUGCAUCCCACCACAUGAUGAUGCCUGAAUAGCCUUGGUUUUUUG,-2.99
4,GACCAAUCUGCCCUCAGAGCUCGAGAACAUCUUCGGAUGCAGAGGAGGAAGGCUUCGGUGGCGCGAUAGCGCCAACGACCUCAACCUCCAAUGCAUCCCACCACAUGAUGAUGCCUGAAGAGCCUUGGGUUUUUG,-1.45
5,GACCAAUCUGCCCUCAGAGCUCGAGAACAUCUUCGGAUGCAGAGGAGGAAGGCUUCGGUGGCGCGAUAGCGCCAACGGCCUCAACCGCCAAUGCAUCCCACCACAUGAUGAUGCCUGAAGGGCCUUGUUUUUUUG,-0.14
6,GACCAAUCUGCCCUCAGAGCUCGAGAACAUCUUCGGAUGCAGAGGAGGAAGGCUUCGGUGGCGCGAUAGCGCCAACCUCCUCAACCUCCAAUGCAUCCCACCACAUGAUGAUGCCUGAAGAGCCUUGGUUUUUUG,-0.848
7,GACCAAUCUGCCCUCAGAGCUCGAGAACAUCUUCGGAUGCAGAGGAGGAAGGCAUCGGUGGCGCGAUAGCGCUAACGUCCUCAACCUCCAAUGCAUCCCACCACAUGAUGACGCCUGAAGAGCCUUGGUUUUUUG,1.26
8,GACCAAUCUGCCCUCAGAGCUCGAGAACAUCUUCGGAUGCAGAGGAGGAAGGCUUCGGUGGCGCGAUAGCGCCAACGUCCUCAACCUCCAAUGCAUCCCACCACAUGAUGAUGCCUGAAGAGCCUUGGUUUAUUG,-0.997
9,GACCAAUCUGCCCUCAGAGCUCGAGAACAUCUUCGGAUGCAGAGGAGGAAGGCUUCGGUGGCGCGAUAGCGCCAACGUCCUCAACCUCCAAUGCAUCCCACCACAUGAUGAUCCCUGAAGAGCCUUGGUUUUUUG,-2.05
10,GACCAAUCUGCCCUCAGAGCUCGAGAACAUCUUCGGAUGCAGAGGAGGAAGGCUUCGGUGGCGCGAUAGCGCCAACGUCCUCAACCUCCAAUCCAUCCCACCACAUGAUUAUGCCUGAAGAGCCUUGGUUUCUUG,-2.27
11,GACCAAUCUGCCCUCAGAGCUCGAGAACAUCUUCGGAUGCAGAGGAGGAAGGCUUCGGUGGCGCGAUAGCGCCAACGUCCUCAACCUCCAAUGCACCCCACCACAUGAUGAUGCCUGAAGAGCCUUGGUUUUUUG,-0.589
12,GACCAAUCUGCCCUCAGAGCUCGAGAACAUCUUCGGAUGCAGAGGAGGAAGGCUUCGGUGGCGCGAUAGCGCCAACGUCCUCAACCUCCAAUGCAACCCACCACAUGAUGAUGCCUGAAGAGCCUUGGUUUUUUG,-1.29
13,GACCAAUCUGCCCUCAGAGCUCGAGAACAUCUUCGGAUGCAGAGGAGGAAGGCUUCGGUGGCGCGAUAGCGCCAACGGCCUCAACCUCCAAUGCAGCCCACCACAUGAUGAUGCCUGAAGAGCCUUGGUUUUUUG,-0.964
14,GACCAAUCUGCCCUCAGAGCUCGAGAACAUCUUCGGAUGCAGAGGAGGGAGGCUUCGGUGGCGCGCUAGCGCCAACGUCCUCAACCUCCAAUGCAUCCCAGCACAUGAUGAUGCCUGAAGAGCCUUGGUUUUUUG,-4.2
15,GACCAAUCUGCCCUCAGAGCUCGAGAACAUCUUCGGAUGCAGAGGAGGAAGGCUGCGGUGGCGCGAUAGUGCCAACGUCCUCAACUUCCAAUGCCUCCCAUCACAUGAUGAUGCCUGAAGAGACUUGGUUUUUUC,-1.71
16,GACCAAUCUGCCCUCAGAGCUCGAGAACAUCUUCGGAUGCAGAGGAGGAAGGCUGCGGUGGCGCGAUAGCGCCAACGUCCUCAACCUCCAAUGCAUCCCACCACAUGAUGAUGCCUGAAGAGCCAUAGUUUUUUG,-1.79
17,GACCAAUCUGCCCUCAGAGCUCGAGAACAUCUUCGGAUGCAGAGGAGGAAGGCUUCGGAGGCGCGAUAGCGCCUACGUCCUCAACCUCCAAUGCAUCCCACCACAUGAUGAUGUCUGAAGAGCCUUGGUUUUUUG,-2.86
18,GACCAAUCUGCCCUCAGAGCUCGAGAACAUCUUCGGAUGCAGAGGAGGAAGGCUUCGGUGGCGCGAUAGCGCCAACGUCCUCAACCUCCAAUGCAUCCCACCACAUGAUAAUGCCUGAAGAGCCUUGGUUUUUUG,-1.34
19,GACCAAUCUGCCCUCAGAGCUCGAGAACAUCUUCGGAUGCAGAGGAGGAAGGCUUCGGUGGCGCGAUAGCGCCAACGUCCUCAACCUCCAAUGCAUCCCACCACAUGAUUAUGCCUGAAGAGCCUUGGUUUUUUG,-1.73
20,GACCAAUCUGCCCUCAGAGCUCGAGAACAUCUUCGGAUGCAGAGGAGGAAGGCAUCGGUUGCGCGAUAGCGCCAACGUCCACAACCUCCAAUGCAUCCCACCACAUGAUGAUGCCUGAAGAGCCUUGUUUUUUUG,-2
21,GACCAAUCUGCCCUCAGAGCUCGAGAACAUCUUCGGAUGCAGAGGAGGGAGGCUUCGGUGGCGCGAUAGCGCCAACGUCCUCAACCUCCAAUGCAUCCCACCACAUGAUGAUGCCUGAAGAGCCUUGGUUUUUUG,-0.312
